Data on one molecule can be found in patent US20250152729A1 (CANCER RESEARCH TECHNOLOGY, published 2025).

In assay [1] the target is T1, mouse SEMA4A expressed on expi293 cells (UniProt ID Q62178) (mouse, UniProt Q62178 33-760).
T1 construct: Transient transfection in expi293 cells
T1 sequence: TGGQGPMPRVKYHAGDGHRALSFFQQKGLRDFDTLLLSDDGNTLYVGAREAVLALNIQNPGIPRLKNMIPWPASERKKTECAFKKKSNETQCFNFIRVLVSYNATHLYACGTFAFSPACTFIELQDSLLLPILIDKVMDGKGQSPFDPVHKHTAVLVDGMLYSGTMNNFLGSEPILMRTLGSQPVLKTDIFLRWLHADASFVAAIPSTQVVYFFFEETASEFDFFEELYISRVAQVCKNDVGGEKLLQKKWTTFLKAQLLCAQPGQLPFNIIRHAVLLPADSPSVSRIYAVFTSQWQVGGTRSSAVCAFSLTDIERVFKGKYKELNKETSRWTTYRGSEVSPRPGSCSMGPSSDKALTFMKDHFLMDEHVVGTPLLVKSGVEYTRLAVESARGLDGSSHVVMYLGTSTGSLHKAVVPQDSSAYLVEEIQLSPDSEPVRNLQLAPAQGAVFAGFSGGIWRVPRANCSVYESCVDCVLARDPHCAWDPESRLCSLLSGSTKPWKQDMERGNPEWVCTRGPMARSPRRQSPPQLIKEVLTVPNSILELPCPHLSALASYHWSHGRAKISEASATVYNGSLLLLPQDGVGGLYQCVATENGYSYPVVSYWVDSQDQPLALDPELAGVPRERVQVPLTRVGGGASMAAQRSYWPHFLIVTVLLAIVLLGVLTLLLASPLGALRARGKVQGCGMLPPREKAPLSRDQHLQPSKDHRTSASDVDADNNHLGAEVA
In words: Mirrorball direct binding, dilution series on expi293 cells transiently transfected with mouse SEMA4A, anti-human Alexa Fluor 647. The source says:
(§1) Hits from the primary screening were re-formatted into the human Alya IgG1 vector and re-expressed and purified as described in section 4.1. In addition, a single clone was identified that contained an Asparagine deamidation motif (Asn Gly) within its VHCDR2. This potential sequence liability was de-risked by synthesising de novo two clonal variant VH genes (Asn Ala and Gln Gly) and cloning these sequences into the human Alya IgG1 expression vector. To determine the specificity profile of each purified human Alya IgG1, a dilution series was tested for binding to human SEMA4A, mouse SEMA4A, cyno SEMA4A, human SEMA4B and mock transfected cells (transient transfections set up in expi 293 cells.) The five assays employed methods described in section 2.3, using the appropriate cells and substituting the un-purified scFv periplasmic preparation with the recombinant human Alya IgG1 dilution series. Data was analysed as Count x median mean intensity (x FLU).

The target of assay [2] is T2, human SEMA4A expressed on cells (UniProt ID Q9H3S1, isoform 1) (human, UniProt Q9H3S1 33-761).
T2 construct: Cell-surface SEMA4A: endogenous on MM.1S, NCI-H929 and Karpas-25 cells, or expi293 cells transfected with Origene SC323738; also called human Semaphorin4A; SEMA4A endogenously expressed on MM.1S cells
T2 sequence: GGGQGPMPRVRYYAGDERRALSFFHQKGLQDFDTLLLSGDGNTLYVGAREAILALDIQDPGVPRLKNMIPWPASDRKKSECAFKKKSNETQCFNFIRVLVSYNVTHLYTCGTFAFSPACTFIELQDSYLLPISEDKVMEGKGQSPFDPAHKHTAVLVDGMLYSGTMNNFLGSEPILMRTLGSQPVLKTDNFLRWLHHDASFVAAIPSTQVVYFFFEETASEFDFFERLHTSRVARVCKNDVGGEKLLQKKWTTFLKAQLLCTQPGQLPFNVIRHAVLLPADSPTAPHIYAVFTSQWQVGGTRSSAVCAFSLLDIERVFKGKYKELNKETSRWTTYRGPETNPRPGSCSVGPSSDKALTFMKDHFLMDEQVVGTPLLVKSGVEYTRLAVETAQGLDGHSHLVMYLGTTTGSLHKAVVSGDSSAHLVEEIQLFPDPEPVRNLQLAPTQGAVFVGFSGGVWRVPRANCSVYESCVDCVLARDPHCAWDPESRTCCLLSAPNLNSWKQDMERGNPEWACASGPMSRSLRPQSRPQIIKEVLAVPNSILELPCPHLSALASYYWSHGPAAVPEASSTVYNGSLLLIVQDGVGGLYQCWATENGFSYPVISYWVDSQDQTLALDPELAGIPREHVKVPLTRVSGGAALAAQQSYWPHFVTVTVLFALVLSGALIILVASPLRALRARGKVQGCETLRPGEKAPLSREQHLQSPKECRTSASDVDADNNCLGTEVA
The assay can be described thus: Mirrorball direct binding, dilution series on expi293 cells transiently transfected with human SEMA4A, anti-human Alexa Fluor 647.
Source text: as §1

Assay [3] has as its target T3, cynomolgus SEMA4A expressed on expi293 cells (UniProt ID G7NV79) (cynomolgus, UniProt Q9H3S1 33-761 (human entry)).
T3 construct: Transient transfection in expi293 cells; also called cyno SEMA4A
T3 chain: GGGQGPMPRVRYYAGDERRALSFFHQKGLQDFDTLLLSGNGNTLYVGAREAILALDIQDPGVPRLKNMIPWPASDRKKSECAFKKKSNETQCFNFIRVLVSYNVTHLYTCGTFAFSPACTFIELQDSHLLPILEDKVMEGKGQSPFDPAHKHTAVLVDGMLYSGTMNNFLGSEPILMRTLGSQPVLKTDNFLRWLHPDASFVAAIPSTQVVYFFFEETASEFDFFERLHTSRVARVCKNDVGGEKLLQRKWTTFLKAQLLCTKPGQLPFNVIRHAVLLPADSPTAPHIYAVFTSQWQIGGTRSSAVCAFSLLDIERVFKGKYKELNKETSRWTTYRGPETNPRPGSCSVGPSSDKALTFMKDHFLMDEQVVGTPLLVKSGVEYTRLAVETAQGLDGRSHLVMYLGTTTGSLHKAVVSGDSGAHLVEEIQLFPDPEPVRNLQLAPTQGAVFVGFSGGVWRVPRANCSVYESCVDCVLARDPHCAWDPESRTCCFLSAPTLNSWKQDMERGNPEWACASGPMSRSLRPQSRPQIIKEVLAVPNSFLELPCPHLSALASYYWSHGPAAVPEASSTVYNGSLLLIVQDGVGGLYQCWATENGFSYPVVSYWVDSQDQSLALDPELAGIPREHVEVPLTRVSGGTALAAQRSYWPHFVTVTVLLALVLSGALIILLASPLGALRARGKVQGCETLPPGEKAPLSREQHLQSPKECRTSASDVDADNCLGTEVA
In words: Mirrorball direct binding, dilution series on expi293 cells transiently transfected with cynomolgus SEMA4A, anti-human Alexa Fluor 647.
Source text: as §1

Assay [4] deals with T4, human SEMA4B expressed on expi293 cells (human, UniProt Q9NPR2 44-837).
T4 construct: whole, on cells
T4 sequence (looked up): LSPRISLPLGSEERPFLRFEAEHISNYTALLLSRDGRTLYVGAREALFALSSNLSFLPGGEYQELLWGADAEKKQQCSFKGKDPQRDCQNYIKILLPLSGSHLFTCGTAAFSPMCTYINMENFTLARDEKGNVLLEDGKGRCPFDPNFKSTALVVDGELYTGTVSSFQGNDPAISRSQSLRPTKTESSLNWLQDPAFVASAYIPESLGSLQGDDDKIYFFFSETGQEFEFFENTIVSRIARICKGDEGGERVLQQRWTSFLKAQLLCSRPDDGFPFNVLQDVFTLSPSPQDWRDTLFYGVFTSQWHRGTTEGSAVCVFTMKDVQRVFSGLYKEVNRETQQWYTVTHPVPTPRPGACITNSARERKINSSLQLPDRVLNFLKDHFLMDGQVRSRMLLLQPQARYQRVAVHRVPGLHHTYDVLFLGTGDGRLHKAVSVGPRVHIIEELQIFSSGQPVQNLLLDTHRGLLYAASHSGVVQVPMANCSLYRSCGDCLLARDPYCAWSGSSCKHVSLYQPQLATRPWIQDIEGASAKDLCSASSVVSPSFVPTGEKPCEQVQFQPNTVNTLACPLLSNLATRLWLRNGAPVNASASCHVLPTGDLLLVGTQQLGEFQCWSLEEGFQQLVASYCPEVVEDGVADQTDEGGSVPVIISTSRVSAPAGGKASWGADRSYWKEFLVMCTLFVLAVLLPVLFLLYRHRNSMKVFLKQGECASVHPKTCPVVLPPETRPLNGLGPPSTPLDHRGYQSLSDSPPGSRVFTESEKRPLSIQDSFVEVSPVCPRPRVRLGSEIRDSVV
In words: Mirrorball direct binding, dilution series on expi293 cells transiently transfected with human SEMA4B, anti-human Alexa Fluor 647.
Source text: as §1

B1: C0120924 (antibody, V domains shown)
VH: QVQLVQSGAEVKKPGASVKVSCKASGYKLNDPGVHGVSWVRQAPGQGLEWMGWISTLNGDTRYAQKFQGRVTMTTDSSTSTIYMELRSLRSDDTAVYYCARDDYTAIFDFWGQGTLVTVSS
VL: SSVLTQPPSVSVAPGQTARITCGGSNIGSQSVHWYQQKPGQAPVLVVYDDSDRPSGIPERFSGSKSGNTATLTISRVEAGDEADYYCQVWDSSTDHHVFGTGTKVTVL
modifications: 239iCys and S442C (EU numbering) in the constant region
notes: one of the 6 germlined clones of m49; purified, unconjugated; also called C0120924 germlined human Alya IgG1
With B1, the binding result is reported as “binds” in assay [1], “binds” in assay [2], “binds” in assay [3] and “no binding (tested: log (M) -8 (1e-8 M))” in assay [4].
